Target: purified deactivated Arabidopsis Rubisco (Ribulose-1,5-bisphosphate carboxylase/oxygenase), O03042

Protein | Activation of deactivated Rubisco assay, 25° C., relative activity (%) | Activity (3rd tier) 25° C. (µmol CO2 min^-1 mg^-1) | Activity (3rd tier) 40° C. (µmol CO2 min^-1 mg^-1) | Rubisco activation under catalytic conditions assay, 25° C., relative activity (%) | specific activity, Rubisco activation under catalytic conditions
Rubisco Activase derived polypeptide 183H12 (protein) MVKEDKQTDGDRWRGLAYDTSDDQQDITRGKGMVDSVFQAPMGTGTHHAVLSSYEYVSQGLRQYNLDNMMDGFYIAPAFMDKLVVHITKNFLTLPNIKVPLILGIWGGKGQGKSFQCELVMAKMGINPIMMSAGELESGNAGEPAKLIRQRYREAADLIKKGKMCCLFINDLDAGAGRMGGTTQYTVNNQMVNATLMNIADNPTNVQLPGMYNKEENARVPIICTGNDFSTLYAPLIRDGRMEKFYWAPTREDRIGVCKGIFRTDKIKDEDIVRLVDQFPGQSIDFFGALRARVYDDEVRKFVESLGVEKIGKRLVNSREGPPVFEQPEMTYEKLMEYGNMLVMEQENVKRVQLAETYLSQAALGDANADAIGRGTFYGKTEEKEPSKLE | 109 | 1.05 | 0.857 | 118 | The protein displaying the highest specific activity at either 25 °C or 40 °C was the best variant isolated in the first round, 183H12
Rubisco Activase derived polypeptide 383A12 (protein) MVKEDKQTDGDRWRGLAYDTSDDQQDITRGKGMVDSVFQAPMGTGTHHAVLSSYEYVSQGLRQYNLDNMMDGFYIAPAFMDKLVVHITKNFLTLPNIKVPLILGIWGGKGQGKSFQCELVMAKMGINPIMMSAGELESGNAGEPAKLIRQRYREAADLIKKGKMCCLLINDLDAGAGRMGGTTQYTVNNQMVNATLMNIADNPTNVQLPGMYNKEENARVPIICTGNDFSTLYAPLIRDGRMEKFYWAPTREDRIGICKGIFRTDKIKDEDIVRLVDQFPGQSIDFFGALRARVYDDEVRKFVESLGVENIGKRLVNSREGPPVFEQPEMTYEKLMEYGNMLVMEQENVKRVQLAETYLSQAALGDANADAIGRGTFYGKTEEKEPSKLE | 93 | 0.891 | 0.92 | 96 | –
Rubisco Activase derived polypeptide 301C7 (protein) MVKEDKQTDGDRWRGLAYDTSDDQQDITRGKGMVDSVFQAPMGTGTHHAVLSSYEYVSQGLRQYNLDNMMDGFYIAPAFMDKLVVHITKNFLTLPNIKVPLILGIWGGKGQGKSFQCELVMAKMGINPIMMSAGELESGNAGEPAKLIRQRYREAADLIKKGKMCCLLINDLDAGAGRMGGTTQYTVNNQMVNATLMNIADNPTNVQLPGMYNKEENARVPIICTGNDFSTLYAPLIRDGRMEKFYWAPTREDRIGICKGIFRTDKIKDEDIVTLVDQFPGQSIDFFGALRARVYDDEVRKFVESLGVENIGKRLVNSREGPPVFEQPEMTYEKLMEYGNMLVMEQENVKRVQLAETYLSQAALGDANADAIGRGTFYGKTEEKEPSKLE | 94 | 0.905 | 0.889 | 96 | –
Rubisco Activase derived polypeptide 184B2 (protein) MVKEDKQTDGDRWRGLAYDTSDDQQDITRGKGMVDSVFQAPMGTGTHHAVLSSYEYVSQGLRQYNLDNMMDGFYIAPAFMDKLVVHITKNFLTLPNIKVPLILGIWGGKGQGKSFQCELVMAKMGINPIMMSAGELESGNAGEPAKLIRQRYREAADLIKKGKMCCLFINDLDAGAGRMGGTTQYTVNNQMVNATLMNIADNPTNVQLPGMYNKEENARVPIICTGNDFSTLYAPLIRDGRMEKFYWAPTREDRIGVCKGIFRTDKIKDEDIVTLVDQFPGQSIDFFGALRARVYDDEVRKFVESLGVENIGKRLVNSREGPPVFEQPEMTYEKLMEYGNMLVMEQENVKRVQLAETYLSQAALGDANADAIGRGTFYGKTEEKEPSKLE | – | 1.05 | 0.889 | – | –
Rubisco Activase derived polypeptide 079H6 (protein) MVKEDKQTDGDRWRGLAYDTSDDQQDITRGKGMVDSVFQAPTGTGTHHAVLSSYEYVSQGLRQYNLDNMMDGFYIAPAFMDKLVVHITKNFLTLPNIKVPLILGIWGGKGQGKSFQCELVMAKMGINPIMISAGELESGNAGEPAKLIRQRYREAADLIKKGKMCCLFINDLDAGAGRMGGTTQYTVNNQMVNATLMNIADNPTNVQLPGMYNKEENARVPIICTGNDFSTLYAPLIRDGRMEKFYWAPTREDRIGVCKGIFRTDKIKDEDIVTLVDQFPGQSIDFFGALRAKVYDDEVRKFVESLGVEKIGKRLVNSREGPPVFEQPEMTYEKLMEYGNMLVMEQENVKRVQLAETYLSQAALGDANADAIGRGTFYGKTEEKEPSKLE | 111 | 1.06 | 0.94 | 105 | –
wild type Rubisco Activase (Arabidopsis, short form RCA1) (protein) MVKEDKQTDGDRWRGLAYDTSDDQQDITRGKGMVDSVFQAPMGTGTHHAVLSSYEYVSQGLRQYNLDNMMDGFYIAPAFMDKLVVHITKNFLTLPNIKVPLILGIWGGKGQGKSFQCELVMAKMGINPIMMSAGELESGNAGEPAKLIRQRYREAADLIKKGKMCCLFINDLDAGAGRMGGTTQYTVNNQMVNATLMNIADNPTNVQLPGMYNKEENARVPIICTGNDFSTLYAPLIRDGRMEKFYWAPTREDRIGVCKGIFRTDKIKDEDIVTLVDQFPGQSIDFFGALRARVYDDEVRKFVESLGVEKIGKRLVNSREGPPVFEQPEMTYEKLMEYGNMLVMEQENVKRVQLAETYLSQAALGDANADAIGRGTFYGKTEEKEPSKLE | 100 | 0.96 | 0.634 | 100 | –
Rubisco Activase derived polypeptide 214A4 (protein) MVKEDKQTDGDRWRGLAYDTSDDQQDITRGKGMVDSVFQAPTGTGTHHAVLSSYEYVSQGLRQYNLDNMMDGFYIAPAFMDKLVVHITKNFLTLPNIKVPLILGIWGGKGQGKSFQCELVMAKMGINPIMMSAGELESGNAGEPAKLIRQRYREAADLIKKGKMCCLFINDLDAGAGRMGGTTQYTVNNQMVNATLMNIADNPTNVQLPGMYNKEENARVPIICTGNDFSTLYAPLIRDGRMEKFYWAPTREDRIGVCKGIFRTDKIKDEDIVRLVDQFPGQSIDFFGALRARVYDDEVRKFVESLGVEKIGKRLVNSREGPPVFEQPEMTYEKLMEYGNMLVMEQENVKRVQLAETYLSQAALGDANADAIGRGTFYGKTEEKEPSKLE | 111 | 1.07 | 0.986 | 101 | –
Rubisco Activase derived polypeptide 126H4 (protein) MVKEDKQTDGDRWRGLAYDTSDDQQDITRGKGMVDSVFQAPMGTGTHHAVLSSYEYVSQGLRQYNLDNMMDGFYIAPAFMDKLVVHITKNFLTLPNIKVPLILGIWGGKGQGKSFQCELVMAKMGINPIRMSAGELESGNAGEPAKLIRQRYREAADLIKKGKMCCLFINDLDAGAGRMGGTTQYTVNNQMVNATLMNIADNPTNVQLPGMYNKEENARVPIICTGNDFSTLYAPLIRDGRMEKFYWAPTREDRIGVCKGIFRTDKIKDEDIVTLVDQFPGQSIDFFGALRARVYDDEVRKFVESLGVEKIGKRLVNSREGPPVFEQPEMTYEKLMEYGNMLVMEQENVKRVQLAETYLSQAALGDANADAIGRGTFYGKTEEKEPSKLE | – | 0.616 | 0.596 | – | –
Rubisco Activase derived polypeptide 382D8 (protein) MVKEDKQTDGDRWRGLAYDTSDDQQDITRGKGMVDSVFQAPMGTGTHHAVLSSYEYVSQGLRQYNLDNMMDGFYIAPAFMDKLVVHITKNFLTLPNIKVPLILGIWGGKGQGKSFQCELVMAKMGINPIMVSAGELESGNAGEPAKLIRQRYREAADLIKKGKMCCLFINDLDAGAGRMGGTTQYTVNNQMVNATLMNIADNPTNVQLPGMYNKEENARVPIICTGNDFSTLYAPLIRDGRMEKFYWAPTREDRIGICKGIFRTDKIKDEDIVTLVDQFPGQSIDFFGALRARVYDDEVRKFVESLGVENIGKRLVNSREGPPVFEQPEMTYEKLMEYGNMLVMEQENVKRVQLAETYLSQAALGDANADAIGRGTFYGKTEEKEPSKLE | 105 | 1.01 | 0.91 | 98 | –
Rubisco Activase derived polypeptide 301H3 (protein) MVKEDKQTDGDRWRGLAYDTSDDQQDITRGKGMVDSVFQAPMGTGTHHAVLSSYEYVSQGLRQYNLDNMMDGFYIAPAFMDKLVVHITKNFLTLPNIKVPLILGIWGGKGQGKSFQCELVMAKMGINPIMMSAGELESGNAGEPAKLIRQRYREAADLIKKGKMCCLFINDLDAGAGRMGGTTQYTVNNQMVNATLMNIADNPTNVQLPGMYNKEENARVPIICTGNDFSTLYAPLIRDGRMEKFYWAPTREDRIGICKGIFRTDKIKDEDIVRLVDQFPGQSIDFFGALRARVYDDEVRKFVESLGVENIGKRLVNSREGPPVFEQPEMTYEKLMEYGNMLVMEQENVKRVQLAETYLSQAALGDANADAIGRGTFYGKTEEKEPSKLE | 101 | 0.971 | 0.86 | 92 | –
Rubisco Activase derived polypeptide 182B11 (protein) MVKEDKQTDGDRWRGLAYDTSDDQQDITRGKGMVDSVFQAPMGTGTHHAVLSSYEYVSQGLRQYNLDNMMDGFYIAPAFMDKLVVHITKNFLTLPNIKVPLILGIWGGKGQGKSFQCELVMAKMGINPIMISAGELESGNAGEPAKLIRQRYREAADLIKKGKMCCLFINDLDAGAGRMGGTTQYTVNNQMVNATLMNIADNPTNVQLPGMYNKEENARVPIICTGNDFSTLYAPLIRDGRMEKFYWAPTREDRIGVCKGIFRTDKIKDEDIVTLVDQFPGQSIDFFGALRARVYDDEVRKFVESLGVEKIGKRLVNSREGPPVFEQPEMTYEKLMEYGNMLVMEQENVKRVQLAETYLSQAALGDANADAIGRGTFYGKTEEKEPSKLE | – | 0.426 | 0.359 | – | –

From patent US20080072349
